# Test results reported in patent US10400249B2, “HPPD variants and methods of use” (priority 2014, dated 2019).
# Where a chain is given by its changes, count along the chain named. Numbers in names are those of the source.
# B1: K131: PfHPPD variant E335P, G336Y, K339A, A340Q (protein)
# chain: MADLYENPMGLMGFEFIEFASPTPGTLEPIFEIMGFTKVATHRSKNVHLYRQGEINLILNNEPNSIASYFAAEHGPSVCGMAFRVKDSQKAYNRALELGAQPIHIDTGPMELNLPAIKGIGGAPLYLIDRFGEGSSIYDIDFVYLEGVERNPVGAGLKVIDHLTHNVYRGRMVYWANFYEKLFNFREARYFDIKGEYTGLTSKAMSAPDGMIRIPLNEESSKGAGQIEEFLMQFNGEGIQHVAFLTDDLVKTWDALKKIGMRFMTAPPDTYYEMLEGRLPDHGEPVDQLQARGILLDGSSVEGDKRLLLQIFSETLMGPVFFEFIQRKGDDGFGPYNFAQLFESIERDQVRRGVLTAD
# modifications: HPPD variant - K131
# notes: PfHPPD variant E335P, G336Y, K339A, A340Q
# B2: K137: PfHPPD variant P215L, E335P, G336Y (protein)
# chain: B1 chain with P215L, A339K, Q340A
# modifications: HPPD variant - K137
# notes: PfHPPD variant P215L, E335P, G336Y
# B3: K132: PfHPPD variant E335P, G336Y, A340E (protein)
# chain: B1 chain with A339K, Q340E
# modifications: HPPD variant - K132
# notes: PfHPPD variant E335P, G336Y, A340E
# B4: K203: PfHPPD variant P215L, E335P, G336Y, A340E (protein)
# chain: B1 chain with P215L, A339K, Q340E
# modifications: HPPD variant - K203
# notes: PfHPPD variant P215L, E335P, G336Y, A340E
# B5: K300: PfHPPD variant P215L, E335P, G336F, A340G (protein)
# chain: B1 chain with P215L, Y336F, A339K, Q340G
# modifications: HPPD variant - K300
# notes: PfHPPD variant P215L, E335P, G336F, A340G
# B6: K255: PfHPPD variant P215A, E335P, G336F, A340E (protein)
# chain: B1 chain with P215A, Y336F, A339K, Q340E
# modifications: HPPD variant - K255
# notes: PfHPPD variant P215A, E335P, G336F, A340E
# B7: K258: PfHPPD variant P215N, E335P, G336F, A340E (protein)
# chain: B1 chain with P215N, Y336F, A339K, Q340E
# modifications: HPPD variant - K258
# notes: PfHPPD variant P215N, E335P, G336F, A340E
# B8: K405: PfHPPD variant A188G, R189C, P215A, E335P, G336F, A340E (protein)
# chain: B1 chain with A188G, R189C, P215A, Y336F, A339K, Q340E
# modifications: HPPD variant - K405
# notes: PfHPPD variant A188G, R189C, P215A, E335P, G336F, A340E
# B9: PfHPPD: wild-type Pseudomonas fluorescens HPPD, reference protein (protein)
# chain: B1 chain with P335E, Y336G, A339K, Q340A
# modifications: Pseudomonas Fluorescens
# B10: K407: PfHPPD variant A188G, R189E, P215N, E335P, G336F, A340E (protein)
# chain: B1 chain with A188G, R189E, P215N, Y336F, A339K, Q340E
# modifications: HPPD variant - K407
# notes: PfHPPD variant A188G, R189E, P215N, E335P, G336F, A340E
# B11: K299: PfHPPD carrying only the P215L mutation, used as a second reference (protein)
# chain: B1 chain with P215L, P335E, Y336G, A339K, Q340A
# modifications: HPPD variant - K299
# B12: K406: PfHPPD variant A188G, R189G, P215N, E335P, G336F, A340E (protein)
# chain: B1 chain with A188G, R189G, P215N, Y336F, A339K, Q340E
# modifications: HPPD variant - K406
# notes: PfHPPD variant A188G, R189G, P215N, E335P, G336F, A340E
# B13: C959: reference PfHPPD mutant E335P (protein)
# chain: B1 chain with Y336G, A339K, Q340A
# modifications: HPPD variant - C959
# B14: K408: PfHPPD variant A188G, R189D, P215N, E335P, G336F, A340E (protein)
# chain: B1 chain with A188G, R189D, P215N, Y336F, A339K, Q340E
# modifications: HPPD variant - K408
# notes: PfHPPD variant A188G, R189D, P215N, E335P, G336F, A340E
# System: Pseudomonas fluorescens HPPD protein
# Test: HGD assay: HPPD activity coupled to HGA dioxygenase, pI50 and type of inhibition (time-course)
# Type: biochemical
# Settings: not given
# Experimental: (§1) HPPD proteins were produced and purified as described in WO2011/076882. The activity of HPPD proteins in absence or presence of HPPD inhibitors was determined using either the so called OD assay or the HGD assay.
# (§2) • a) The OD assay: The HPPD activity was determined colourimetrically by measuring the amount of HPP remaining in the assay mixture at the end of the incubation period after derivatisation of HPP with 2,4-dinitrophenylhydrazine (DNP) to form an amber-brown colored 2,4-dinitrophenylhydrazone under alkaline conditions. The assay was carried out at room temperature in Greiner F-bottom 96 well microplates. The assay mixture contained 50 mM Tris-HCl pH 7.8, 0.5 mM HPP, 10 mM ascorbate, 650 units of catalase and appropriate amounts of purified HPPD enzyme in a total assay volume of 100 μl. The reaction was started by the addition of enzyme. After an incubation time of 24 minutes, the reaction was stopped by the addition of 50 μl of a solution of 0.04% DNP dissolved in 3.8 N HCl. After a further 15-minute incubation period 100 μl of a 5 N KOH solution was added to the reaction mixture and the amount of unconsumed HPP was measured photometrically at 405 nm. Enzyme activity was calculated as the difference in E405 between assays lacking enzyme (negative control) and the enzyme containing assays (ΔE405=E405(negative control)−E405). Enzyme activity (nmol substrate consumed per min) was calculated from a calibration curve generated from HPP. pI50-values (the negative log value of the concentration of inhibitor necessary to inhibit 50% of the enzyme activity in molar concentration were determined from dose-response plots of HPPD activity versus inhibitor concentration tested (5.0×10^−6, 1.0×10^−5, 2.5×10^−5, 4.0×10^−5, 7.0×10^−5, 1.0×10^−4, 2.0×10^−4 and 5.0×10^−4M) using the 4 Parameter Logistic Model or Sigmoidal Dose-Response Model of the ID Business Solutions Ltd. XLfit software suite. The result “>5.6” means that the inhibition at the lowest inhibitor concentration tested was higher than 85% and the pI50-value could therefore not be precisely calculated within in the range of concentration of inhibitor tested. The result “<2.5” means that the inhibition at the highest inhibitor concentration tested was lower than 25% and the pI50-value could therefore not be precisely calculated within in the range of concentration of inhibitor tested. “n.d.” means not determined. • b) The HGD assay: With the HGD assay HPPD activity was measured at room temperature by adding appropriate amounts of HPPD to a solution of 200 mM Tris-HCl pH 7.6, 10 mM ascorbate, 20 μM FeSO4, 650 units of catalase, 8 μg HGA dioxygenase (HGA: homogentisate) and 600 μM HPP in a total volume of 1 ml. Initial reaction rates in the absence or presence of inhibitors were determined from the increase in absorbance at 318 nm due to the formation of maleylacetoacetate (ε318=11,900 M−1 cm-1). pI50-values (the negative log value of the concentration of inhibitor necessary to inhibit 50% of the enzyme activity in molar concentration were determined from dose-response plots of HPPD activity versus inhibitor concentration tested using the 4 Parameter Logistic Model or Sigmoidal Dose-Response Model of the ID Business Solutions Ltd. XLfit software suite. Due to the UV absorption of the HPPD inhibitors tested, inhibitor concentrations >100 μM could not be tested. The result “<4” means that the inhibition at 100 μM inhibitor concentration was lower than 25% and the pI50-value could therefore not be precisely calculated within in the range of concentration of inhibitor tested. “n.d.” means not determined. The HGD assay allowed to continuously follow HPPD-catalyzed HGA formation over time was therefore used to determine the inhibition type of the HPPD inhibitors tested. […] When in the presence of an inhibitor the HPPD activity was inhibited but the inhibition was found not to […] in a time-dependent manner, the inhibitor was called reversible (abbreviation “rev”). […]
row,Molecule,"mechanism of inhibition by Cmpd. 2, time-course of inhibition"
1,B1,fully reversible inhibitor
2,B2,fully reversible inhibitor
3,B3,fully reversible inhibitor
4,B4,fully reversible inhibitor
5,B5,fully reversible inhibitor
6,B6,fully reversible inhibitor
7,B7,fully reversible inhibitor

# Same assay, conditions: inhibitor Cmpd. 1; HGD assay
row,Molecule,tolerance (pI50) Cmpd. 1
1,B3,5.5

# Same assay, conditions: inhibitor Cmpd. 2; HGD assay
row,Molecule,tolerance (pI50) Cmpd. 2
1,B1,6.2
2,B2,5.5
3,B3,5.9
4,B4,5.3
5,B5,4.3

# Same assay, conditions: inhibitor Cmpd. 4; HGD assay
row,Molecule,tolerance (pI50) Cmpd. 4
1,B3,6.9

# System: Pseudomonas fluorescens HPPD protein
# Test: OD assay: HPPD activity and pI50 from HPP remaining after derivatisation with DNP
# Type: biochemical
# Settings: HPPD enzyme activity of the clone
# Experimental: as §1, §2
row,Molecule,Activity DeltaE/24 min μg Protein [DeltaE/24 min μg Protein]
1,B1,0.50
2,B2,0.12
3,B3,0.50
4,B8,0.16
5,B9,0.76
6,B10,0.41
7,B4,0.08
8,B5,0.01
9,B11,0.17
10,B12,0.52
11,B6,0.09
12,B7,0.15
13,B13,0.09
14,B14,0.56

# Same assay, conditions: inhibitor Cmpd. 2
row,Molecule,tolerance (pI50) Cmpd. 2
1,B8,4.9
2,B9,>5.6
3,B10,5.7
4,B5,3.8
5,B11,>5.6
6,B12,5.6
7,B6,5.0
8,B7,5.4
9,B14,5.7

# Same assay, conditions: inhibitor diketonitrile (DKN), negative log of molar concentration
row,Molecule,tolerance (pI50) DKN
1,B1,3.3
2,B2,2.8
3,B3,3.1
4,B8,3.3
5,B9,>5.6
6,B10,<2.5
7,B4,<2.5
8,B5,<2.5
9,B11,5.1
10,B12,<2.5
11,B6,3.0
12,B7,<2.5
13,B13,5.5
14,B14,<2.5

# Same assay, conditions: inhibitor mesotrione (MST)
row,Molecule,tolerance (pI50) MST
1,B1,3.7
2,B2,3.4
3,B3,3.7
4,B8,3.7
5,B9,>5.6
6,B10,3.6
7,B4,3.0
8,B5,<2.5
9,B11,5.5
10,B12,3.5
11,B6,3.7
12,B7,3.4
13,B13,>5.6
14,B14,3.6

# Same assay, conditions: inhibitor tembotrione (TBT)
row,Molecule,tolerance (pI50) TBT
1,B1,4.8
2,B2,4.7
3,B3,4.8
4,B8,4.8
5,B9,>5.6
6,B10,4.6
7,B4,3.9
8,B5,3.1
9,B11,>5.6
10,B12,4.5
11,B6,4.5
12,B7,4.4
13,B14,4.6
